34 molecules from article PMC10132805 (Nature Communications, 2023) can be followed below.

To fix the notation:
B23: tumor susceptibility gene 101 protein UEV domain (TSG101 UEV) (domain or fragment)
chain: AVSESQLKKMVSKYKYRDLTVRETVNVITLYKDLKPVLDSYVFNDGSSRELMNLTGTIPVPYRGNTYNIPICLWLLDTYPYNPPICFVKPTSSMTIKTGKHVDANGKIYLPYLHEWKHPQSDLLGLIQVMIVVFGDEPPVFSRP
B25: VHS domain of ADP-ribosylation factor-binding protein GGA3 (GGA3 VHS) (domain or fragment)
chain: ATNPSNRQEDWEYIIGFCDQINKELEGPQIAVRLLAHKIQSPQEWEALQALTVLEACMKNCGRRFHNEVGKFRFLNELIKVVSPKYLGDRVSEKVKTKVIELLYSWTMALPEEAKIKDAYHMLKRQGIVQS
B28: C terminal domain of polyadenylate-binding protein 1 (PABP1 PABC) (domain or fragment)
chain: QEPLTASMLASAPPQEQKQMLGERLFPLIQAMHPTLAGKITGMLLEIDNSELLHMLESPESLRSKVDEAVAVLQAHQA
notes: also called PABPC1 PABC; PABP1 C

Common to all, as to settings: both partners purified
Experiment [1] concerns the target T1, Mu homology domain (MHD) of the AP-2 subunit mu (AP2M1 MHD) (human, UniProt Q96CW1 170-434).
T1 sequence (looked up): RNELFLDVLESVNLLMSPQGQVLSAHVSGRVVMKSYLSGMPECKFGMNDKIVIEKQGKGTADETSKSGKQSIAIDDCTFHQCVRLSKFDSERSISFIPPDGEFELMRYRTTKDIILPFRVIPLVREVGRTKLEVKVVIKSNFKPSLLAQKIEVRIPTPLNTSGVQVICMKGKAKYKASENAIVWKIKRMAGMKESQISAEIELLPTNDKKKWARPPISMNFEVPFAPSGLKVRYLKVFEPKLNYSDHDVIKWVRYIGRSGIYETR

The target of experiment [2] is T2, C terminal domain of polyadenylate-binding protein 1 (human, UniProt P11940 544-623).
T2 construct: also called PABP1 PABC; PABC

The target of experiment [3] is T3, GAE domain of ADP-ribosylation factor-binding protein GGA3 (GGA3 GAE) (human, UniProt Q9NZ52 594-715).
T3 construct: also called GGA3 ear
T3 sequence (looked up): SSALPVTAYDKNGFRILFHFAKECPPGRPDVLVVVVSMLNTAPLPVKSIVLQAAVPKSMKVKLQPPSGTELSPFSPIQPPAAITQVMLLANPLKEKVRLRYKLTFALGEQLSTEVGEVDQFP

The target of experiment [4] is B23.
The target of experiment [5] is B25.
For experiment [6], the target named is B28.
In experiment [7] the target is VP0 79-94 (HPeV5) (Human parechovirus 5 (strain CT86-6760) …).
The target in experiment [8] is P1 54-69 (SFV) (Semliki forest virus (SFV)).
The target of experiment [9] is T4, N-terminal domain of clathrin (human, UniProt Q00610 1-364).
T4 construct: also called CLTC NTD; CLTC-NTD
T4 sequence: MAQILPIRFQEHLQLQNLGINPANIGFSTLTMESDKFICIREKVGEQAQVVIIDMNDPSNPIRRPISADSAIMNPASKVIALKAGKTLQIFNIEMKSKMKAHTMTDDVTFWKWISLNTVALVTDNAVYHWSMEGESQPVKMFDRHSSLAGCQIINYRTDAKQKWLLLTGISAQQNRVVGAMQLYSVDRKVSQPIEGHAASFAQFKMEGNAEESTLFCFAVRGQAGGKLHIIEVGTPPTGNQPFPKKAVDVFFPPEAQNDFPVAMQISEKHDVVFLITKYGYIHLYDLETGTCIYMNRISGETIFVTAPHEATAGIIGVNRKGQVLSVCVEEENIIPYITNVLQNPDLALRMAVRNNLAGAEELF

Experiment [10] addresses N 2-17 (BeV) (Berne virus (BEV)).

The Kd is the constant that tells how readily two partners part at equilibrium.

No end group written: not given here. *: point of attachment. FITC = O=C1OC2(c3ccc(O)cc3Oc3cc(O)ccc32)c2ccc(NC(=S)*)cc21

T2 sequence (P11940 544-623): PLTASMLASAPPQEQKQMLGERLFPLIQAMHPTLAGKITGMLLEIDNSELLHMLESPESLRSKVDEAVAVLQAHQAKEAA

B1: N 124-139 (MuV) (peptide)
peptide: ANEIAAYALLADDLPP
In experiment [1], B1 registered a Kd of 4 ± 0.1 µM.

B2: PABP-interacting protein 2 peptide PAIP2_(108-123) (peptide, UniProt Q9BPZ3 108-123, looked up)
peptide: KSNLNPNAKEFVPGVK
notes: also called PAIP2 peptide
Take B2: the binding result in experiment [2] is on record as “binds”.

B3: P/V/C 130-145 (NiV) (peptide)
peptide: SSPERGWSDYTSGANN
In [3], B3 gave a Kd of 48 ± 6 µM.

B4: FITC - RABEP1 435-446 (Human) (peptide)
peptide: {FITC}-DESDFGPLVGAD
In experiment [3], B4 had a Kd of 1.9 ± 0.1 µM.

B5: M 32-47 (WCBV) (peptide)
peptide: WLPPPEYVPLHEISSK
As for B5, binding in experiment [1] was characterised by a dissociation constant (Kd) of 12 ± 0.4 µM.

B6: P/V/C_(183-198) (NiV) peptide (peptide)
peptide: TTGLNPTAVPFTLRNL
B6: the binding result in [2] is “binds”.

B7: Nsp4 127-142 (BAV) (peptide)
peptide: NLKLTEPTAPMIHNYM
In turn, B7 gave a dissociation constant Kd in [4] of 64 ± 4 µM.

B8: FITC - IGF2R 2482-2491 (Human) (peptide)
peptide: {FITC}-DDSDEDLLHI
Regarding B8, in [5], binding was put at a Kd of 4.2 ± 0.4 µM.

B9: M6PR 262-277 (Human) (peptide)
peptide: YQLGEESEERDDHLLPM
Take B9: in experiment [5], the Kd is 21 ± 1 µM.

B10: RABEP1 433-448 (Human) (peptide)
peptide: NLDESDFGPLVGADSVY
On to B10, for which, in [3], binding was characterised by a dissociation constant (Kd) of 1.7 ± 0.3 µM.

B11: PAIP1 125-140 (Human) (peptide)
peptide: MSKLSVNAPEFYPSGY
Molecule B11 displayed a Kd in experiment [6] of 1.58 ± 0.08 µM.

B12: PAIP2 108-123 (Human) (peptide)
peptide: KSNLNPNAKEFVPGVKY
B12 displayed a dissociation constant (Kd) in experiment [6] of 0.16 ± 0.2 µM.

B13: VP40 1-20 (SEBOV) (peptide)
peptide: MRRVTVPTAPPAYADIGYPM
Molecule B13 gave a Kd in [4] of 12.2 ± 0.3 µM.

B14: Nsp4 75-90 (BAV) (peptide)
peptide: NLNRVRYSKLDENGVY
The molecule B14 yielded a Kd in experiment [1] of 15.9 ± 0.2 µM.

B15: SYNRG 664-679 (Human) (peptide)
peptide: SSLADDFGEFSLFGEY
For the molecule B15, in experiment [3], the affinity, expressed as Kd, was 11.2 ± 0.3 µM.

B16: CLINT1 366-381 (Human) (peptide)
peptide: TSGNGDFGDWSAFNQA
In turn, B16 came in with an equilibrium dissociation constant (Kd) in experiment [3] of 35 ± 3 µM.

B17: NP 334-349 (ZEBOV) (peptide)
peptide: VNVGEQYQQLREAATE
In turn, B17 registered a Kd in experiment [1] of 9.51 ± 0.07 µM.

B18: N_(351-366) (HCoV 229E) peptide (peptide)
peptide: HPLLNPSALEFNPSQT
On to B18, for which, in [2], the binding result is on record as “binds”.

B19: Nsp4 118-142 (BAV) (peptide)
peptide: VDEEKGLYPNLKLTEPTAPMIHNYM
In experiment [4], B19 gave a dissociation constant (Kd) of 73 ± 2 µM.

B20: FITC - gag 453-462 (HIV2) (peptide)
peptide: {FITC}-GLIPTAPPAD
The molecule B20 showed a dissociation constant Kd in [4] of 3.1 ± 0.2 µM.

B21: NP 460-485 (ZEBOV) (peptide)
peptide: DPDDGSYGEYQSYSEN
The molecule B21 registered a Kd in experiment [3] of 10.6 ± 0.5 µM.

B22: P/V/C_(183-198) (HeV) peptide (peptide)
peptide: SAGLNPAAVPFVPKNQ
For the molecule B22, in experiment [2], the “fold weaker affinity than PAIP2(108-123)” value amounted to 10 fold.

For the molecule B23, binding in experiment [7] was put at a Kd of 75 ± 0.7 µM.

B24: IGF2R 2476-2491 (Human) (peptide)
peptide: YKLVSFHDDSDEDLLHI
On to B24, for which the dissociation constant (Kd) in experiment [5] was 4.7 ± 0.2 µM.

In turn, B25 showed a Kd in experiment [8] of 82 ± 5 µM.

B26: P/V/C 183-198 (NiV) (peptide)
peptide: TTGLNPTAVPFTLRNLY
For the molecule B26, the Kd in [6] stood at 14.6 ± 0.8 µM.

B27: mu-NS_(705-720) (MRV1) peptide (peptide)
peptide: VDGAADLIDFSVPTDE
Take B27: in experiment [9], the binding result is reported as “binds”.

In experiment [10], B28 yielded a dissociation constant (Kd) of 2.7 ± 0.1 µM.

B29: F 519-534 (HeV) (peptide)
peptide: EKKRGNYSRLDDRQVR
Regarding B29, in experiment [1], the Kd stood at 14 ± 1 µM.

B30: PDCD6IP 711-727 (Human) (peptide)
peptide: QSIAREPSAPSIPTPAY
In experiment [4], B30 returned a dissociation constant Kd of 152 ± 1 µM.

B31: L 177-192 (OLVV) (peptide)
peptide: SIEELEYQRLVTSLSK
B31 showed an equilibrium dissociation constant (Kd) in [1] of 10.9 ± 0.1 µM.

B32: M 26-41 (RABV) (peptide)
peptide: PDDDDLWLPPPEYIPL
Regarding B32, binding in experiment [5] was put at a Kd of 148 ± 8 µM.

B33: P/V/C 183-198 (HeV) (peptide)
peptide: SAGLNPAAVPFVPKNQY
Consider B33, for which the Kd in [6] turned out to be 2 ± 0.3 µM.

B34: MDC1 1280-1295 (Human) (peptide)
peptide: TPEPVVPTAPELRPSTY
Consider B34, for which, in [4], binding was characterised by a dissociation constant (Kd) of 28 ± 0.7 µM.
